We go through six molecules from patent publication US20180216091A1.

First the molecules themselves.
B1: Listeria monocytogenes Sortase A variant B (enzyme)
chain: SVIKGAANYDKDAVVGSIAVPSVDVNLLVFKGTNTANLLAGATTMRSDQVMGKGNYPLAGHHMRDESMLFGPIMKVKKGDKIYLTDLENLYEYTVTETKTIDETEVSVIDDTKDARITLITCDKPTETTKRFVAVGELEKTEKLTKELENKYFPSKMRGSHHHHHHGS
B2: Listeria monocytogenes Sortase A variant D (enzyme)
chain: ANYDKDAVVGSIAVPSVDVNLLVFKGTNTANLLAGATTMRSDQVMGKGNYPLAGHHMRDESMLFGPIMKVKKGDKIYLTDLENLYEYTVTETKTIDETEVSVIDDTKDARITLITCDKPTETTKRFVAVGELEKTEKMRGSHHHHHHGS
B3: Listeria monocytogenes Sortase A variant E (enzyme)
chain: GSIAVPSVDVNLLVFKGTNTANLLAGATTMRSDQVMGKGNYPLAGHHMRDESMLFGPIMKVKKGDKIYLTDLENLYEYTVTETKTIDETEVSVIDDTKDARITLITCDKPTETTKRFVAVGELEKTEKLTKELENKYFPSKMRGSHHHHHHGS
B4: Listeria monocytogenes Sortase A variant C (enzyme)
chain: ANYDKDAVVGSIAVPSVDVNLLVFKGTNTANLLAGATTMRSDQVMGKGNYPLAGHHMRDESMLFGPIMKVKKGDKIYLTDLENLYEYTVTETKTIDETEVSVIDDTKDARITLITCDKPTETTKRFVAVGELEKTEKLTKELENKYFPSKMRGSHHHHHHGS
B5: Listeria monocytogenes Sortase A variant A (enzyme)
chain: EKDATFDFESVQLPSMTSVIKGAANYDKDAVVGSIAVPSVDVNLLVFKGTNTANLLAGATTMRSDQVMGKGNYPLAGHHMRDESMLFGPIMKVKKGDKIYLTDLENLYEYTVTETKTIDETEVSVIDDTKDARITLITCDKPTETTKRFVAVGELEKTEKLTKELENKYFPSKMRGSHHHHHHGS
B6: N-terminally truncated Streptococcus pyogenes sortase A (protein)
chain: MRGSHHHHHHGSVLQAQMAAQQLPVIGGIAIPELGINLPIFKGLGNTELIYGAGTMKEEQVMGGENNYSLASHHIFGITGSSQMLFSPLERAQNGMSIYLTDKEKIYEYIIKDVFTVAPERVDVIDDTAGLKEVTLVTCTDIEATERIIVKGELKTEYDFDKAPADVLKAFNHSYNQVST

The first data set has as its target glucose dehydrogenase containing the sortase-motif LPXTG. The data set is described as follows: cell-based or functional assay.
B1 returned a maximum dE/min of 0.026 dE/min. Same read-out and setting: with B2 the figure was 0.044 dE/min. B3: the maximum dE/min worked out at 0.019 dE/min. B4 had a maximum dE/min of 0.113 dE/min. On to B5, for which the maximum dE/min was 0.037 dE/min.

The target of another data set is glucose dehydrogenase harboring a LPKTA motive.
Assay: not given
For the molecule B4, the “activity with different LPKTA concentrations” value is “The graphs show the higher activity of Listeria monocytogenes Sortase A variant C”. Still for that read-out and setting: with B6 the entry was “a substrate inhibition effect for St.py. SrtA at concentrations higher than 300 µM”.
